The source of these data is patent US20260183373A1 (Genentech, published 2026).

Where a chain is given by its changes, count along the chain named. In names and notes the source's numbering stands. Read-outs that look alike come from different tables or passages of the source.

One test addresses T1, Aβ(1-28) (UniProt P05067 672-699).
T1 construct: domain: Aβ(1-28); also called amyloid-β 1-28
Briefly: SPR (Biacore T200): fusion captured on a protein A chip, Aβ(1-28) injected as analyte. A general note: SPR reads the build-up and loss of mass on a sensor chip optically.

The target in test [1] is T2, Aβ(1-40) (UniProt P05067 672-711). Briefly: cell-based or functional assay.
The target of test [2] is T3, Aβ(1-42) (UniProt P05067 672-713). Briefly: cell-based or functional assay.
Test [3] deals with T2, Aβ(1-40). The experiment in a line: cell-based or functional assay. The source holds these as a separate data set.
In test [4] the target is T3, Aβ(1-42). Briefly: cell-based or functional assay. This is another data set of the same source.
Test [5] addresses T2, Aβ(1-40). The experiment in a line: cell-based or functional assay. This is another data set of the same source.
The target of test [6] is T4, anti-HER2 antibody 4D5, IgG1 subtype.
T4 construct: Captured on a Protein L chip as the IgG1 target of the RF61-MMP3 fusion constructs
Briefly: SPR: 4D5 IgG1 captured on Protein L chip, RF61-MMP3 fusion constructs injected; monovalent affinity of the targeting arm.
Description: RF61 surface plasmon resonance: RF61 affinity for human IgG was assessed with a Biacore 8K+ or T200. For rounds one and two of affinity maturation, the Fc domain of human IgG1 was captured on a Series S Protein A chip according to the manufacturer's protocols. Serial dilutions of the RF61 Fab variants were prepared in HBS-P+ buffer. The dilutions were passed over the chip for 4 min, followed by a 5 min dissociation step. Variants were assessed using the response units at the point of late analyte binding normalized to Fc capture level. […] Serial dilutions of human IgG1 Fc in HBS-P+ were passed over the chip for 10 minutes, followed by a 6 min dissociation step. Affinity constants were obtained through kinetic fitting using the Biacore Evaluation Software (GE). […] A single 1000 nM concentration of each binding ablation variant was passed over the chip for 10 minutes, followed by a 6 min dissociation step. […] Serial dilutions of the RF61-MMP3 fusion constructs were prepared in HBS-P+ buffer. The dilutions were flowed over the chip for 3 min, followed by 8 min of dissociation. […] Affinity constants were determined as described above.

The target in the next test is T5, human IgG1 Fc (human, UniProt P01857-1 104-330 = IgG part, limits assumed).
T5 construct: domain: Fc; also called Fc domain of human IgG1
The experiment in a line: SPR: chimeric antibody captured by anti-mouse antibody on CM5 chip, human IgG1 Fc injected.

Description for Aβ(1-28): Aβ surface plasmon resonance: Solution affinity constants for anti-Aβ antibodies were assessed on a Biacore™ T200. […] Affinity constants were obtained through kinetic fitting using the Biacore Evaluation Software.

B1: IgG-CTF-2 format, neprolysin, crenezumab G33S(HC) (antibody)
heavy: not shown
light: DIVMTQSPLSLPVTPGEPASISCRSSQSLVYSNGDTYLHWYLQKPGQSPQLLIYKVSNRFSGVPDRFSGSGSGTDFTLKISRVEAEDVGVYYCSQSTHVPWTFGQGTKVEIKRTVAAPSVFIFPPSDEQLKSGTASVVCLLNNFYPREAKVQWKVDNALQSGNSQESVTEQDSKDSTYSLSSTLTLSKADYEKHKVYACEVTHQGLSSPVTKSFNRGEC
notes: Variant of m9
By Kd is commonly meant a measure of binding affinity in units of concentration. A low value points to tighter binding. The koff is a measure of how fast the partners let go of each other. What is called kon is the rate constant with which the complex forms. A lower kon goes with slower complex formation. In the test with Aβ(1-28), B1 showed a Kd of 1.8 nM, a koff of 0.0013 s⁻¹ and a kon of 750000 M⁻¹ s⁻¹. Further, the “EC50 of Aβ(1-40) cleavage (intact Aβ by ELISA)” value with Aβ(1-40) [1] is 1.6 nM.

B2: IgG-CTF-2 format, neprolysin, solanezumab (antibody)
heavy: not shown
light: B1 light with I2V, P15L, E17Q, V30I, N33D, D35N, T36A, Y41F, Q50R
notes: Human IgG1 with NEP fused to the C-terminus of both heavy chains; also called solanezumab-NEP fusion
B2: in the test with Aβ(1-28), the Kd turned out to be 0.5 nM, the koff was found to be 0.00014 s⁻¹ and the kon was found to be 300000 M⁻¹ s⁻¹. In addition, in the test with Aβ(1-40) [1], the “EC50 of Aβ(1-40) cleavage (intact Aβ by ELISA)” value is 3.9 nM.

B3: IgG-CTF-2 format, neprolysin, crenezumab (antibody)
heavy: not shown
light: B1 light
notes: Human IgG1 with NEP fused to the C-terminus of both heavy chains; also called crenezumab-NEP fusion
For B3, in the test with Aβ(1-42) [2], the “EC50 of Aβ(1-42) cleavage (intact Aβ by ELISA)” value was found to be 5 nM. In the test with Aβ(1-40) [3], the “EC50 of Aβ(1-40) cleavage (intact Aβ by ELISA)” value amounted to 1.1 nM. In the test with Aβ(1-28), this molecule showed an equilibrium dissociation constant (Kd) of 4.7 nM, a koff of 0.0041 s⁻¹ and a kon of 880000 M⁻¹ s⁻¹. In addition, the “EC50 of Aβ(1-40) cleavage (intact Aβ by ELISA)” value with Aβ(1-40) [1] stood at 1.3 nM. Besides, the “potency of Aβ cleavage, fold over the non-targeted control” value with Aβ(1-42) [4] is ~9 fold. For the same molecule, in the test with Aβ(1-40) [5], the “EC50 of Aβ(1-40) cleavage, fold lower than the solanezumab-NEP fusion” value was found to be 3 fold and the “potency of Aβ cleavage, fold over the non-targeted control” value was ~15 fold.

B4: IgG-CTF-2 format, neprolysin, crenezumab G33S(HC)/S56F(LC) (antibody)
heavy: not shown
light: B1 light with S61F
notes: Variant of m9
On to B4, for which, in the test with Aβ(1-28), binding was characterised by a dissociation constant (Kd) of 0.8 nM, the koff came to 0.0006 s⁻¹ and the kon amounted to 750000 M⁻¹ s⁻¹. For the same molecule, in the test with Aβ(1-40) [1], the “EC50 of Aβ(1-40) cleavage (intact Aβ by ELISA)” value came out at 2.3 nM.

B5: Fab-NTF(LC)-1 format, MMP3-D4K-4, RF61-D (Fab)
heavy: QLQLQESGPGLVKPSETLSLTCTVSGGSISRGSHYWGWIRQPPGKGLEWIGSIYYSGNTYFNPSLKSRVTISVDTSKNQFSLKLSSVTAADTAVYYCARLGPDDYTLDGMDVWGQGTTVTVSSASTKGPSVFPLAPSSKSTSGGTAALGCLVKDYFPEPVTVSWNSGALTSGVHTFPAVLQSSGLYSLSSVVTVPSSSLGTQTYICNVNHKPSNTKVDKKVEPKSCDKTHTDYKDDDDK
light: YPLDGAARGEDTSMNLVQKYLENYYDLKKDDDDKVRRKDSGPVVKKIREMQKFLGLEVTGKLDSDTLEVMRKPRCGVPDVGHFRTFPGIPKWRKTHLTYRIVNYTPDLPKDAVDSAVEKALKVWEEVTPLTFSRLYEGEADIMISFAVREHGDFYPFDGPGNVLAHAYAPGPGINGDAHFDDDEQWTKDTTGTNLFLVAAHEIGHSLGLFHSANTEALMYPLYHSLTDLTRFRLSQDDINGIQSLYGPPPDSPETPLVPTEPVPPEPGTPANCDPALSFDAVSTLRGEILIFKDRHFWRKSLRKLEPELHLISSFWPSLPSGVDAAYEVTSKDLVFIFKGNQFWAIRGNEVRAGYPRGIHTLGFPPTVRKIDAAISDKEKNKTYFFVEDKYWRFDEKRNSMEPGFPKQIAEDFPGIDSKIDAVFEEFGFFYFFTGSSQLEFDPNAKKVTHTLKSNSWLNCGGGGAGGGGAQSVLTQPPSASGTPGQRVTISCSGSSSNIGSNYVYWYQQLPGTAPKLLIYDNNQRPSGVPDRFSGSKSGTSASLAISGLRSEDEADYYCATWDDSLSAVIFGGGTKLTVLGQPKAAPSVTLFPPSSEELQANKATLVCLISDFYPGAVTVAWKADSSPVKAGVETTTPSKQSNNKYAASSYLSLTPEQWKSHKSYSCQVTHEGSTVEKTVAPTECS
notes: MMP3-D4K-4 fused to the N-terminus of the light chain; also called RF61-D Fab fusion
For the molecule B5, the Kd in test [6] came to 104 nM.

B6: RF61 chimeric antibody variant R50D LC, S62P L95N T100aA D100cE M100eF HC (mouse IgG2a constant domains) (antibody, V domains shown)
VH: QLQLQESGPGLVKPSETLSLTCTVSGGSISRGSHYWGWIRQPPGKGLEWIGSIYYSGNTYFNPPLKSRVTISVDTSKNQFSLKLSSVTAADTAVYYCARNGPDDYALEGFDVWGQGTTVTVSS
VL: QSVLTQPPSASGTPGQRVTISCSGSSSNIGSNYVYWYQQLPGTAPKLLIYDNNQRPSGVPDRFSGSKSGTSASLAISGLRSEDEADYYCATWDDSLSAVIFGGGTKLTVL
notes: Round 3 variant, one of the eight; copies: 2 + 2
For the molecule B6, the binding result in the test with human IgG1 Fc is reported as “binds”.

B7: RF61 chimeric antibody variant R50N LC, S62P L95N D99H T100aA D100cE M100eF HC (mouse IgG2a constant domains) (antibody, V domains shown)
VH: B6 VH with D104H
VL: B6 VL with D51N
notes: as for B6
Regarding B7, the binding result with human IgG1 Fc was “binds”.

B8: RF61 chimeric antibody variant R50D Y34F LC, S62P L95N D100cE M100eF HC (mouse IgG2a constant domains) (antibody, V domains shown)
VH: B6 VH with A106T
VL: B6 VL with Y35F
notes: as for B6
As to B8, the binding result with human IgG1 Fc is listed as “binds”.

B9: RF61 chimeric antibody variant R50N Y34F LC, S62P D99H D100cE M100eF HC (mouse IgG2a constant domains) (antibody, V domains shown)
VH: B6 VH with N100L, D104H, A106T
VL: B6 VL with Y35F, D51N
notes: as for B6
In the case of B9, in the test with human IgG1 Fc, the binding result is listed as “binds”.

B10: RF61 chimeric antibody variant R50N LC, L95N D99H T100aA HC (mouse IgG2a constant domains) (antibody, V domains shown)
VH: B6 VH with P64S, D104H, E108D, F110M
VL: B6 VL with D51N
notes: as for B6
Take B10: the binding result with human IgG1 Fc is recorded as “binds”.

B11: RF61 chimeric antibody variant R50D Y34F LC, S62P D99H M100eF HC (mouse IgG2a constant domains) (antibody, V domains shown)
VH: B6 VH with N100L, D104H, A106T, E108D
VL: B6 VL with Y35F
notes: as for B6
For B11, the binding result with human IgG1 Fc is “binds”.

B12: anti-gD Control (antibody, human IgG1, kappa)
heavy chain with neprolysin fused to its C-terminus: not shown
light chain: DIQMTQSPSSLSASVGDRVTITCRASASVDSYGNSFIHWYQQKPGKAPKLLIYRASDLESGVPSRFSGSGSGTDFTLTISSLQPEDFATYYCQQNYADPFTFGQGTKVEIKRTVAAPSVFIFPPSDEQLKSGTASVVCLLNNFYPREAKVQWKVDNALQSGNSQESVTEQDSKDSTYSLSSTLTLSKADYEKHKVYACEVTHQGLSSPVTKSFNRGEC
With B12, in the test with Aβ(1-40) [1], the “EC50 of Aβ(1-40) cleavage (intact Aβ by ELISA)” value turned out to be 11 nM.
